Consider 19 sequences from the DeepSol protein solubility set.

This data set is described as follows: soluble on expression in E. coli; label from the status in PepcDB or PDB records.
Consider “MGSDKIHHHHHHMSRAERLIELMITINAKRSFTAGELAEEFSVSKRTILRDLQVLESIGFPLYSKVGAAGGYHVLKERILPPIAFSESEVKSIFFAYQSLEYYNDLPFEQETISVLKKFLNCIPNDIQYNIENIRRKFVFWTPDRHCSTPLLKELFNIVMNEFTIKIEYSSKQKNSVRTIVPIGLYAMNGLWYCPAYCIKSESIKEFRVDRIVKILSIENLSSKKYKVLSSIHDYLKNMEVGTDYHIKINLTDEGVKRCETEFLLARGLKILSKGGYIDMYIPKSTLNWVAEYFLTFGKNATIIEPIELKHLIKSKVLELYNHHCI”, for which the “soluble on expression in E. coli” value is “not soluble”.

In the case of “MKDPRIEKLAYNLINYSIRLQKGEKVLIENFGLQKELVTALVKEAYAAGGFPFVSLKDHQVDRSLLMGATEEHFEQIAAYEASVMKDMDAYIGLRSGDNINEQADVPSERMKVHGQTVGKKVHRDIRVPKTRWVVLRYPNASMAQLAKMSTEAFEDFYFEVCNLDYGKMDKAMDSLVTLMNKTDKVRLTGPGTDLTFSIKDIPAIKCSGHLNIPDGEVYSAPVRDSVNGTVSYNTPSPYNGYTFENVQLKFENGQIVEATANDSERINKIFDTDEGARYVGEFAIGVNPYILHPMGDILFDEKIDGSFHFTPGQAYDDAWNGNNSNIHWDLVCIQRPEYGGGEIYFDDVLIRKDGRFVVPELEALNPENLK”, the “soluble on expression in E. coli” value is recorded as “not soluble”.

On to “MSRMIFLFLIPVVTSCIPTQQIEMPCPTDWEKFERPSGPWCVKLFVGLYLQGNRNEASARCAAEGAVLSGVQNQAELNAMTRQFTKLRYGYFWVGAMRKTSCLMSQLTATCTALNSFEWTDGSTTGTDGFIWKTGDPNNYLYNLYE”, for which the “soluble on expression in E. coli” value is given as “not soluble”.

In the case of “MGSDKIHHHHHHMMATIKDIAKEVGCSISTVSRVLNNDPTLSVGDETRSRIFEVAEEIGYRKKTLKTLVKNIAFLYWLTDNEELEDVYFQTMRVEIEKKARENNIELTTYKLEGGIEKIPLDIDGFIAVGSFMNRELEYLRELTPHGVFIDSTPDPAHYDSVRPDLAQITRQAVEVLVEQGHEKIGFIGGTYHNLDTDAEEMDGRERAFRQTMEERDLLREDFIFCRRGFSVDNGHYLMNQAVEQLGEELPTAFYVAADPIAVGCLQVLNEQQIEIPKRVSLISVNDTSISKYVSPPLTTFHIDLEEICQNAIQLLLERVLKKRNIVKTVYIGAELITRKSTL”, the “soluble on expression in E. coli” value is on record as “not soluble”.

As to “MSLTSTIEELLTAARRRRVFSAAGWSVGTATTTLCRGLLGTTAWDPPATAVTEDSRWDLASMTKPIVAIAVMSLIEDGVLTLDDTIAEHLPDYADTDKARIRVANLLTHTSGIPGRQPLYQWNRARDELLTAIRRLPLLGPPGAQVSYSSPGFILLGLIAESAAGMPLDQLVAERVTRPAGMVDAGFASPPTELAVATEDDPWRGHLVRGEVHDENAVVLGAPAGHAGMFATLVDMEALGRTLCAQGWGAHGRVLTPAGYAAMITPRTDHLPLRRTLGWQGVDAVDATAGDLIGPDGYGHTGFTGTSLWIDPDRGSYVVLLTNRIHPNRENTAISRVRRAVNNIGFALASEGHHHHHH”, the “soluble on expression in E. coli” value was “soluble”.

For “MFSSIGWPEIFTVLILGLIIIGPERLPKVIEDVRAAIYAAKKAINNAKEELNGNLGAEFDEFREPINKIASIQRMGPKAVLTKALFDEDENFMDNFDPKKIMASGTEGEAYRERGINPQPAGDSASPQTPSNKESQPKAGFSWDDIT”, the “soluble on expression in E. coli” value is “not soluble”.

Turning to “MGIMEAERKTTGWAARDPSGILSPYTYTLRETGPEDVNIRIICCGICHTDLHQTKNDLGMSNYPMVPGHEVVGEVVEVGSDVSKFTVGDIVGVGCLVGCCGGCSPCERDLEQYCPKKIWSYNDVYINGQPTQGGFAKATVVHQKFVVKIPEGMAVEQAAPLLCAGVTVYSPLSHFGLKQPGLRGGILGLGGVGHMGVKIAKAMGHHVTVISSSNKKREEALQDLGADDYVIGSDQAKMSELADSLDYVIDTVPVHHALEPYLSLLKLDGKLILMGVINNPLQFLTPLLMLGRKVITGSFIGSMKETEEMLEFCKEKGLSSIIEVVKMDYVNTAFERLEKNDVRYRFVVDVEGSNLDA”, the “soluble on expression in E. coli” value is listed as “soluble”.

In the case of “MGHHHHHHSHGYRSVRERTSTSGTHRDREDSKFRRTRPLECQDALETAARAEGLSLDASMHSQLRILDEEHPKGKYHHGLSALKPIRTTSKHQHPVDNAGLFSCMTFSWLSSLARVAHKKGELSMEDVWSLSKHESSDVNCRRLERLWQEELNEVGPDAASLRRVVWIFCRTRLILSIVCLMITQLAGFSGPPTDLRKEGMNLQTLRLRSSNKHQRFPGLPRAPVYQKLLERMKH”, the “soluble on expression in E. coli” value is reported as “soluble”.

As for “MTPDQMRDASLLELFRLEAEAQTQVLNAGLMALERSPTQADQLEACMRAAHSLKGAARIVGLDAGVRVAHVMEDCLVEAQDGRLLLQSEHIDALLQGCDLLLRIGTPPAGDAGWAEGAGREEIDGLVLRLEGLVRSGLPLARAELPATTPGLPEAVPEAPPAASAAASDDNDEEPAGQAGGEQAEERRSRVLRVTAERLDRLLDISSKSLVEFQRIKPLADSLQRLRRLQSSASRALDVVRETVQETALDPQAQAMLGEARQLIGECQQMLVQHIADLDEFAWQGGQRAQVLYDAALASRMRPFADVLSGQARMVRDLGRSLGKQVRLLVEGESTQVDRDVLEKLEAPLTHLLRNAVDHGIEAPETRLAAGKPAEGRITIRARHHAGMLVLELSDDGGGIDLQRLRETVLNRQFATAETVAQLSEEELLAFLFLPGFSMREQVTEVSGRGVGLDAVQHMVRQLRGGVRMEQRQGQGALFHVEVPLTLSVVRSLVVEIGEEAYAFPLAHIERMCELEAEEIVQLEGRQHFWYEGRHVGLVSAAQLLQRPESSRTEGAIPVVVVRDRDAVYGVAVERFVGERTLVVMPLDPRLGKVRDVSAGALLDDGSPVLILDVEDLLHSVGKLLSSGRLERIDRSRRQAGGAQRKRILVVDDSLTVRELERKLLLGRGYDVAVAVDGMDGWNALRSEHFDLLITDIDMPRMDGIELVTLVRRDSRLQSLPVMVVSYKDREEDRRRGLDAGADYYLAKASFHDEALLDAVVVLIGEAQG”, the “soluble on expression in E. coli” value is “not soluble”.

Turning to “MDKSLLLELPILLCCFRALSGSLSMRNDAVNEIVAVKNNFPVIEIVQCRMCHLQFPGEKCSRGRGICTATTEEACMVGRMFKRDGNPWLTFMGCLKNCADVKGIRWSVYLVNFRCCRSHDLCNEDL”, the “soluble on expression in E. coli” value is reported as “not soluble”.

In the case of “MDYYRVGTLVNTHGIRGEVKVVVVTDFPEERFKVGQQLSLFKTPDETTGGITVKIAKAREQKGLYFLTFEGLDNINDVERYKGWTIKVPAEALHALPAGEYYYHQIVGLQVVTTADEPLGTIKEILSPGANDVWVVKRDHGQSDVLLPKIPQVIKDVDLDAGVVTVELMEGLIDLEHHHHHH”, the “soluble on expression in E. coli” value is given as “soluble”.

“MKTVPPVHRIALLFNGSKIYDRGIISGIGNYLSSTRVSWDLFLEEDFLCRLKGIERWQGDGIIADFDDPLIGEALAGIRLPVVAVGGSYQDERAYPKGIPYVATDNHALIKAAYEHLIEAGLTRFACFSLPEAQANRWAQEREKAFRHLLQRDGLHAEVYRGLGTSAPLWDSAVEQQITWLQSLPKPIGIIAVTDARARQLLQACLTAGIAVPEQVALIGIDNDPLTRTLTRVPLSSVIQGTETMGRTAARLLHQLLHGMPSSGTHILIPPDAVNVQASSLHQPLGDPYVMQALLFIRQYACQGIKTAQVAAYVGVSRSALESHFRRVRGCSVHDEILRFKLAAAAHGLENTDSAIADIARDCGFRSAQYLHTVFRREFGCTPREYLQGANAALQ”: the “soluble on expression in E. coli” value was “not soluble”.

Regarding “MLNIFTTISKINITSLAIGCFDGMHLGHLKLVKCLDENGALLVINKFKGQFLCSNRQKEEISGKKVIEVDFESIKSLDGRDFLSFLKKEFVNLKFIVVGYDFSFGKNRAYNAKDIESLSGIKTIIVDEFSIDGIGVHASLIKDFLSKANLQKAKEFLGRDYSIKGKMIKGQGLGSKELFATINLDCEGYFLPQNGVYVTLLKSQRKTYKSVSFLGVRSSDENFAIESHILEELGENFTQGEFFELEFISFLRENQKFQDLKKLKNQIAKDIEQARELLRKNDER”, the “soluble on expression in E. coli” value is recorded as “not soluble”.

Take “MSLKDGKLGLPIPEAVKIIPELNNYVINGKLDFSNRQARILYNKAIAKALFGLDIEYHPKGLVTTPISRYIFLKTFLRGGEVALEIGTGHTAMMALMAEKFFNCKVTATEVDEEFFEYARRNIERNNSNVRLVKSNGGIIKGVVEGTFDVIFSAPPYYDKPLGRVLTEREAIGGGKYGEEFSVKLLEEAFDHLNPGGKVALYLPDKEKLLNVIKERGIKLGYSVKDIKFKVGTRWRHSLIFFKGISEGHHHHHH”: the “soluble on expression in E. coli” value is on record as “soluble”.

For the sequence “MGSDKIHHHHHHAQYNKVYADITANMLVDMGFENVIWSEDEKERVYVLENTPWRLQGVGLAHAIDRIQKTGLPEKGKSCRIVVLDNNIPQISLIYTANPDSLKAAPGSYAARSAWDATYDLGDSWDKVKKEYRMNSSLFKVDVVVYPELYLKNLIITQIYQVLFNLSPAIEVSFWNGMKLTAQMVFPIYNDGYGPWAGKIHPGMVTLSQSFRLPYRTFARASIGLFNADRYGVDLAVTHHLKDERFSLEGRIGCTGTGSWQKFEYHYGTHQRVTWSLGGSFYWPKYNTQVSLKAEQYLLGEIGGRIDLIRHFRYCSIGFYAMKAQGALKNGGFRFQVALPPYKYKRKNVRVLPSDNWGMSYNAGNERYYYKGYKASPNDNIMQQNQFNPYFIKSELLNF”, the “soluble on expression in E. coli” value was “not soluble”.

As to “AGGGYWHTSGREILDANNVPVRIAGINWFGFETCNYVVHGLWSRDYRSMLDQIKSLGYNTIRLPYSDDILKPGTMPNSINFYQMNQDLQGLTSLQVMDKIVAYAGQIGLRIILDRHRPDCSGQSALWYTSSVSEATWISDLQALAQRYKGNPTVVGFDLHNEPHDPACWGCGDPSIDWRLAAERAGNAVLSVNPNLLIFVEGVQSYNGDSYWWGGNLQGAGQYPVVLNVPNRLVYSAHDYATSVGPQTWFSDPTFPNNMPGIWNKNWGYLFNQNIAPVWLGEFGTTLQSTTDQTWLKTLVQYLRPTAQYGADSFQWTFWSWNPDSGDTGGILKDDWQTVDTDKDGYLAPIKSSIFDPV”, the “soluble on expression in E. coli” value is “soluble”.

On to “TPPPTQWSYLCHPRVKEVQDEVDGYFLENWKFPSFKAVRTFLDAKFSEVTCLYFPLALDDRIHFACRLLTVLFLIDDVLEHMSFADGEAYNNRLIPISRGDVLPDRTKPEEFILYDLWESMRAHDAELANEVLEPTFVFMRAQTDRARLSIHELGHYLEYREKDVGKALLSALMRFSMGLRLSADELQDMKALEANCAKQLSVVNDIYSYDKEEEASRTGHKEGAFLCSAVKVLAEESKLGIPATKRVLWSMTREWETVHDEIVAEKIASPDGCSEAAKAYMKGLEYQMSGNEQWSKTTR”, for which the “soluble on expression in E. coli” value is recorded as “soluble”.

For “MGSDKIHHHHHHMNAHTNSQANTNVTNVVFRTHTQPDEAASKKAGRPIFTDIEVCDITFPANRQTRATFPAHDAEPNATRESMANGGGVMTYAQVYNAQYLAYKSGVAQPMGGTPLSEAPFLTESKRRELKALNVHTVEALASLDGMPLKQLGMGGRELKNQAVAYIDNAAGSADVTNLAAQVAILTQQLAEERRMREEFTNAALARRERIKAGEEIEDDEQPEDDEPAELEPEPDDFEPVLPPTFAEIDAMDDEALKVYIAKETGSRPRGNPNRDTLVAAAKELAS”, the “soluble on expression in E. coli” value is on record as “not soluble”.

For the sequence “MNDLCVDLGYKSLNKFGEQLCGDMIQVVKDDDTTILVLADGLGSGVKANILSTLTSKIISTMIAAHMGIEECVNTIMSTLPVCKVRGIAYSTFTIIKITNNTYAEIIQYDNPLVILLRNGKKYDYPTQTKIISGKKIVESKIRLNCDDVFVVMSDGAIYAGVGQTLNYGWQRENIIEFIESHYDKSLSANALTSLLIDTCNNLYANMPGDDTTIAAIKIRKRQVVNLMFGPPQNPEDVHNMMSLFFAKQGRHIVCGGTTSTLAAKFLGKELETTIDYIDPRIPPIARIEGVDLVTEGVLTISRVLEYAKDYIGKNILYNEWHSKNDGASIIARMLFEEATDINFYVGKAINPAHQNPNLPIGFNIKMQLVEELSKILKQMGKTINLSYF”, the “soluble on expression in E. coli” value was “not soluble”.
